Drawing on patent publication US20020150536A1, this text covers IC50 for one substance.

The term IC50 denotes the point on the concentration scale where inhibition reaches its midpoint. A higher IC50 goes with lower potency.

The target of assay [1] is αvβ3 integrin (human) (UniProt P06756). The assay is described as follows: competition ELISA, displacement of biotinylated vitronectin (10 nM) from immobilized αvβ3 (FIG. 4A). A general note: In an ELISA, binding on a coated surface is turned into a signal by an enzyme label.
Assay [2] has the same target. Put plainly: competition ELISA, displacement of biotinylated fibrinogen (6 nM) from immobilized αvβ3 (FIG. 4B).

As to αvβ3-specific monoclonal antibody LM609, the IC50 was 2.7 nM with αvβ3 integrin (human) [1] and 6.3 nM in the assay with αvβ3 integrin (human) [2].
